According to PMC9305820:

Tests used:
[1] = target: Fluorescently labeled TGF-β1; experiment: MST
[2] = target: Transforming growth factor-β1 (TGF-β1) dimer (UniProt P01137); experiment: negative-stain electron microscopy
[3] = target: Transforming growth factor-β1 (TGF-β1) dimer (UniProt P01137); experiment: dynamic light scattering

UniProt P01137, sequence (P01137 279-390): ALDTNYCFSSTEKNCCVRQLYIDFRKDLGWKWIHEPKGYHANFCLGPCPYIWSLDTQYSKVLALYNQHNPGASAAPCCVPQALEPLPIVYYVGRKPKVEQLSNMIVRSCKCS

For “Bintrafusp alfa (from UniProt P37173 23-166)”, the Kd [1] was 0.055 nM, the stoichiometry N (TGF-β1 dimer per BA) [2] was 1 and the stoichiometry N (BA per TGF-β1 dimer) [3] was 1.
